Data taken from patent publication US20170182047A9, “Post-Translational Regulation of Catalytic Activities of Cytochrome P450 46A1 and Uses Thereof” (The Board of Regents of the University of Texas System, priority 2007, published 2017).

Columns and labels:
[1] = substrate: CC(C)CCC[C@@H](C)[C@H]1CC[C@H]2[C@@H]3CC=C4C[C@@H](OS(=O)(=O)O)CC[C@]4(C)[C@H]3CC[C@]12C; assay: purified protein, by the assay type; settings: other: compound as substrate, 37.0 °C
Experimental: (§1) The ability of recombinant CYP46A1 to metabolize CH-3S was tested using the reconstituted with cytochrome P450 reductase in vitro system. After termination of the enzyme reaction, the substrate and products were extracted, solvolyzed, converted into trimethylsilyl ethers and analyzed by gas chromatography-mass spectrometry as described (23). […] The reaction conditions were optimized for the formation of only one product.
(§2) The reconstituted system (1 ml) contained 0.1-0.25 μM P450, 0.5 μM NADPH cytochrome P450 oxidoreductase, varying concentrations of cold substrate (1-75 μM), 250,000 cpm of radiolabeled substrate, and 2U of catalase. […] The organic phase was isolated, evaporated, dissolved in acetonitrile, and subjected to HPLC. […] Substrate metabolism was <18% and linear with reaction time and enzyme concentration.

[2] = substrate: CC(C)CCC[C@@H](C)[C@H]1CC[C@H]2[C@@H]3CC=C4C[C@@H](O)CC[C@]4(C)[C@H]3CC[C@]12C; assay: purified protein, by the assay type; settings: other: compound as substrate, 37.0 °C
Experimental: as §1, §2

Protein	Km ([1]; Full-length CYP46A1)	Km ([2]; Full-length CYP46A1)	kcat ([2]; Full-length CYP46A1)	kcat/Km ([2]; Full-length CYP46A1)	Km ([1]; Δ(2-50) CYP46A1)	Km ([2]; Δ(2-50) CYP46A1)	kcat ([2]; Δ(2-50) CYP46A1)	kcat/Km ([2]; Δ(2-50) CYP46A1)
full-length CYP46A1 (Homo sapiens) (protein) MSPGLLLLGSAVLLAFGLCCTFVHRARSRYEHIPGPPRPSFLLGHLPCFWKKDEVGGRVLQDVFLDWAKKYGPVVRVNVFHKTSVIVTSPESVKKFLMSTKYNKDSKMYRALQTVFGERLFGQGLVSECNYERWHKQRRVIDLAFSRSSLVSLMETFNEKAEQLVEILEAKADGQTPVSMQDMLTYTAMDILAKAAFGMETSMLLGAQKPLSQAVKLMLEGITASRNTLAKFLPGKRKQLREVRESIRFLRQVGRDWVQRRREALKRGEEVPADILTQILKAEEGAQDDEGLLDNFVTFFIAGHETSANHLAFTVMELSRQPEIVARLQAEVDEVIGSKRYLDFEDLGRLQYLSQVLKESLRLYPPAWGTFRLLEEETLIDGVRVPGNTPLLFSTYVMGRMDTYFEDPLTFNPDRFGPGAPKPRFTYFPFSLGHRSCIGQQFAQMEVKVVMAKLLQRLEFRLVPGQRFGLQEQATLKPLDPVLCTLRPRGWQPAPPPPPC	4.9 µM	5.4 µM	0.11^2 min^−1	330 M⁻¹ s⁻¹				
Δ(2-50)CYP46A1dH (Homo sapiens) (protein) MKKDEVGGRVLQDVFLDWAKKYGPVVRVNVFHKTSVIVTSPESVKKFLMSTKYNKDSKMYRALQTVFGERLFGQGLVSECNYERWHKQRRVIDLAFSRSSLVSLMETFNEKAEQLVEILEAKADGQTPVSMQDMLTYTAMDILAKAAFGMETSMLLGAQKPLSQAVKLMLEGITASRNTLAKFLPGKRKQLREVRESIRFLRQVGRDWVQRRREALKRGEEVPADILTQILKAEEGAQDDEGLLDNFVTFFIAGHETSANHLAFTVMELSRQPEIVARLQAEVDEVIGSKRYLDFEDLGRLQYLSQVLKESLRLYPPAWGTFRLLEEETLIDGVRVPGNTPLLFSTYVMGRMDTYFEDPLTFNPDRFGPGAPKPRFTYFPFSLGHRSCIGQQFAQMEVKVVMAKLLQRLEFRLVPGQRFGLQEQATLKPLDPVLCTLRPRGWQPAPPPPPC					3.3 µM	7.7 µM	0.43 min⁻¹	1000 M⁻¹ s⁻¹
